# From publication PMC13186710
# Columns and labels:
# [1] = biological target: Nonphosphorylated, SAG21k-bound FLAG-tagged mouse Smoothened (residues 64-674) S570C (mouse) (UniProt P56726); assay: cross-linking; disulfide trapping with 5 mM diamide, 1 h, room temperature; FLAG-SMO (4 ul of 12.5 uM) and PKA-C (4 ul of 6.25 uM) in 10 ul, 20 mM HEPES, 150 mM NaCl, 0.025% GDN, SAG21k, 1 mM ATP, 10 mM MgCl2, pH 8.0; non-reducing SDS-PAGE
# [2] = biological target: GRK2-phosphorylated FLAG-tagged mouse Smoothened (residues 64-674), wild type (mouse) (UniProt P56726); assay: SPR; biotinylated SMO nanodiscs captured (Biotin CAPture kit, 250-350 RU); myr-PKA-Cα-K7C 16 nM-1 uM injected; 20 mM MOPS pH 7.0, 150 mM NaCl, 100 uM EDTA, 1 mM ATP, 10 mM MgCl2, 0.001% P20, 25 °C; Biacore 3000; steady-state analysis
# [3] = biological target: GRK2-phosphorylated FLAG-tagged mouse Smoothened (residues 64-674) I573A F577A R580A (mouse) (UniProt P56726); assay: as above
percent of the disulfide trapping that depends on SMO phosphorylation (against pSMO S570C) [1] [%],Kd [2] [nM],Kd [3] [nM],Substance
54,,,"Mouse PKA-C G136C in the minimal-cysteine ((−)Cys, C199A) background (enzyme)"
,82,222,Myristoylated PKA-Cα K7C (enzyme)
